Here are results for 22 sequences from the DeepSol protein solubility set.

The series is described as follows: soluble on expression in E. coli; label from the status in PepcDB or PDB records.
In the case of “MGSDKIHHHHHHHLKTQAISFVIHFAHRPVKRYDSPLSFLCSRRVQKIKIMLRATSLFITLGLSHSAWALVPPDYQEPPSDFSAEIEAGLQINTGNTESSSFNGRTKLVYDTDKFRQEGVFKAYFASDSEKTTSEKYDVQLQSSYKIYSGYIFARGDFTEDRFGSYTRISTVSTGYGFDAISGDSTKLSLEVGPGYRYNLPQVSESVPDPEADREIILRTAAKFEQKIHEYTSFNADLTAETGEANNTVTLDMSYKNTLFQDWAFKIGMNIKYTEVVPEGSKQTDTVTTFNLLYTFK”, the “soluble on expression in E. coli” value is reported as “not soluble”.

Take “MAGFAVNLKVVLNSDAVFGTACKRGGGAPETCLLEDMGLEREDIEPFGYEKDKDREILVWHTKTSTPNIVKSNKNSTKKAPPPDTFGYFVEA”: the “soluble on expression in E. coli” value is on record as “not soluble”. For the sequence “MSEPASVPRGAAPGSRGTASPRAVVIGAGLAGMLAAAALHRHAEVTVVDRDVLPAEPAPRKGLPQARHAHLLWSGGARAMEDLLPGVTAAWLAAGARRIPLPTGLVSLSAQGWLRRWPEMEFMISCTRDLLDSVIREQVAKKEGVTLLAGTELLGLEGGALRVTGVRVRTPEGEERVLEADLVVDASGRGSRSVAWLDALGVPQAPMDEVDSGLAYASRIFRAPAGTEDFPVVNVQPDPAQPVPAQSATIVPVEGGRWLVTLSGTHGGQPTASAEEFEAFARGVRDPVVGELIAHAEPLTNVVLTRSTINRRRFFEKVKDWPEGFVAIGDAVATYNPVYGHGMSVAAQGAVALREHVAEHGLAAPGLARRAQRAVALPVKIAWELATGTDIRYPEAIGKQPGGTQKLLGRYVERLMRTATGRPLVAQAFLGVITLSRPLSTLVKPEVLFAVLRGPRRSPLAGPPLTPEERKAVLTAKEPSGTQAAGLEHHHHHH”, the “soluble on expression in E. coli” value is given as “not soluble”.

In the case of “MGHHHHHHSHMGKGPNLLALQLSDSTLADIIARLQAGQKLSGSSPFSSAFNSLSLDKESGLLMFKGDKKPRVWVVPTQLRRDLIFSVHDIPLGAHQRPEETYKKLRLLGWWPGMQEHVKDYCRSCLFCIPRNLIGSELKVIESPASVLRGQGVCNRSGTR”, the “soluble on expression in E. coli” value is listed as “not soluble”. “MTPTIELICGHRSIRHFTDEPISEAQREAIINSARATSSSSFLQCSSIIRITDKALREELVTLTGGQKHVAQAAEFWVFCADFNRHLQICPDAQLGLAEQLLLGVVDTAMMAQNALIAAESLGLGGVYIGGLRNNIEAVTKLLKLPQHVLPLFGLCLGWPADNPDLKPRLPASILVHENSYQPLDKGALAQYDEQLAEYYLTRGSNNRRDTWSDHIRRTIIKESRPFILDYLHKQGWATR”: the “soluble on expression in E. coli” value is reported as “soluble”. In the case of “MGHHHHHHSHMWVDDFPLHRSACEGDSELLSRLLSERFSVNQLDSDHWAPIHYACWYGKVEATRILLEKGKCNPNLLNGQLSSPLHFAAGGGHAEIVQILLNHPETDRHITDQQGRSPLNICEENKQNNWEEAAKLLKEAINKPY” it was “not soluble”; in that of “MAMGQLQHGIDDENATKQTQKYRDAEQSKKTAYDQAVAAAKAILNKQTGSNSDKAAVDRALQQVTSTKDALNGDAKLAEAKAAARQNLGTLNHITNAQRTALEGQINQATTVDGVNTVKTNANTLDGAMNSLQGAINDKDATLRNQNYLDADESKRNAYTQAVTAAEGILNKQTGGNTSKADVDNALNAVTRAKAALNGAENLRNAKTSATNTINGLPNLTQLQKDNLKHQVEQAQNVVGVNGVKDKGNLEHHHHHH”, “soluble”. With “MDKSKINFNYQSRAVYSANPQTSRGRLFHETMNTLRSPFQRDRDRIIHSNAFRRLKHKTQVFIADESDHYRTRLTHSIEVSQIARTLARALYLDEDLAESIALVHDFGHTPFGHAGEDALNEAMAPYGGFDHNAQALRIVTKLEQRYANFDGLNLTWETLEGLVKHNGPLLGPYAKNKDIPIDILQYNAKQDLQLNCFAGLEAQCAAIADDIAYNAHDVDDGLRSQFLTLDQFEQVSLTAALLNDIKKEHPQLDQTRRGYTLVRRQIKTMVEDVIKQSQENLARVKPKSISDVHQAEQTIVTFSPTMAVYERELKDFLFKNLYYHDQVLNRRNAAKRIVQKLFECYYENPDVMPENWHNKTAHLTNQELARLIADFLSGMTDHYALREYQHLFDCTDNFI” the entry was “not soluble”; with “MEDILMPEGEKVSMENFALLRVLGKGAYGKVFLVRKVGGKDHNTIYAMKVLRKTRVLTKQKTLEHTMAERQVLERLRGTPFLVNLFYAFQTDTKLHIVMEYVRGGELFTHLCSRGHFDLEAARFVIAELVVAIDSLHQRKVIYRDLKLENILLDEEGHVKLTDFGLSKLFLPGELDRANSYCGTIEYMSPEVINRPEGGYSDVVDWWSLGVISFELLTGCSPFTVDGAQNSSKDIAKRIMTKKVPFPKTMDVDARDFIGQLLEKKLEKRLGYNGVDEIKNHKFMSSIDWDAAVKRTLKPVIVPRIGHDLDTQFFSAEFTSQPPLYSPAESPLNANTLFRGYSYVSPSVIFANDNVIGEELMAEDVNALLASSSFFAKYKLDKSDAGLLGKGAFSVVRRCERVVDGAQFAVKIVSQKFASQAQREARILEMVQGHPNIVQLHDVHSDPLHFYLVMEILTGNELLERIRKLERFTESEAADIMRQLVSAVKYLHDKRIVHRDLKPENILFESIDSSARLRLVDFGFARLLPNSMEQQLKSVQVLRKMTPCFTLQYAAPEVLDVGDSQPEYNEQCDLWSLGVVLFTMLSGQVPFHARSRQESATEIMQRICRAEFSFTGDAWTNVSADAKNLITGLLTVDPKKRLSMQELTAHMWLKSSASMDTPLQTPSILPSSADETFNETLRAFLHANRDGFHLLDVAAAPLMKRRGIKRQSGDKDASGNSKNSRVTQFECLPEEQEAEMTSSTSRPSNLGMMNYREPNSGTIRETRGSDSS”, “not soluble”.

Take “MSHPVVSKEEWLAARRDLLVKEKELTRARDRLNEARRALPWEEVTKDYIFDAPSGPRSLQELFGDCSQLIVYHFMLAPDWEEGCVGCSFFADHVDGALVHLRHGDAGFVAVSRAPLEKIEGYKNRMGWKFPWVSAEGSDFNYDYQASFRDEDVEKGEITYNYRDMAPFGDLKDLHGISVFAKGEDGKIYHTYSTYARGAEQTLGTLMLLDLVPKGRNEDEVMDWVRRHDQYEDAPKAASCCH”: the “soluble on expression in E. coli” value was “not soluble”. In the case of “MGSDKIHHHHHHMTEKADGKARIVRLGQILRIFMEKEKVSSTWLSRQFQTTPRTIQRDLLLLKKSGFPLHEIRKGIYQLHKDLVRNLEVFDDTELALVVALKNIVGQLGRPFQTAAGNILDHLYDCVKSMPVFVKIDDAVPLDSALLNRILQAILKKRTVSFQYAAPHGSHAVNLEPYRVVYFSGFWYLIGNEPSTGILKRYALDKIENFKSSRQCFTAIPSDLDDVLRQSANIWFTEDANIEITVHIDARVSDYFKRRKMYPTQEIKEERPDGSLVVTFRVGNYEAIRDILKSWIPHFVILEPEDFRVSMLNDIKGWVEKQEQQSCLDNISF” it was “not soluble”; in that of “MKLIRGIHNLSQAPHGCVLTIGNFDGVHRGHRALLQGLQEEGRRRGLPVVVMIFEPQPLELFATDKAPARLTRLREKLHYLAQCGVDYVLCVKFDRRFAALTAQTFISELLVERLGVQFLAVGDDFRFGASRAGDFLLLQKAGAEYGFAVSSTQTFCEGGVRISSTAVRQALAEDNLALAESLLGHPFTISGRVVHGDELGRTIGFPTANLPLRRQVSPVKGVYAVEVTGLGDKPLPGVANIGTRPTVAGVRQQLEVHLLDVVMDLYGRHIDVILRKKIRNEQRFASLDELKAQIARDELTARKFFGLAGQV”, “not soluble”.

As to “MNQLINITLNENQEPVVSGRDLHNVLNIKTQYTKWLERMSEYGFEENVDYIAISQKRLTAQGNRTEYIDHVLKLDMAKEIAMLQRNEKSKQVRKYFIQVEKDFNSPEKIMARALLMADKKITNLTMENNQLQLDLKEAQKQARYLDLIIESKGALRVTQIAADYGMSVNKFNKTLLEFGVQHKVNGQWILYKRHMGKGYTDSHTFDYQDKNGHTRANVTTTWTQKGRLFLYELLKDNNILPLIEQEDIV”, the “soluble on expression in E. coli” value is given as “not soluble”. In the case of “IGPVQYHIGGTITYTTNKLIDLGATSVLKSGFVGKQQGYPLNSYFGLRYVGKIQTQEELEKYKYYYLDGNGIGMQDNLRLGDHMFEDVNGDGKLDQNDYVYLGTDDPKLSYSINIGLEWKGFDLSAIFQGVGRRTVFRGGEGNETWRVPMSAIYLNTTTQSIGNTWNPENRNAYYPSYTSIGSINNYNYQCSSWSVENGAYLRLKNLTLGYTLPASWLAKTNAISKLRIYFTGADLWEHSKLRDGWDPEASRKTKDLGRYPFNRTFTVGVNATF” it was “not soluble”; in that of “GPGSSISNLSMQTHAARMRTFMYWPSSVPVQPEQLASAGFYYVGRNDDVKCFCCDGGLRCWESGDDPWVEHAKWFPRCEFLIRMKGQEFVDEIQGRY”, “soluble”. “MAHHHHHHMTAQILLYTDCIPQVFSPLKGEREGLLDSQQFANITTNCNTAFACGDPSLNTRISPYMRLSYFHNVTRIRNRKAHISHDIAGDCYVHYKTTCGGIILRPNVRLRPRGRSHRNRVSPRNVIFAAIFLNHRRNGLNRHIDRLNQILQKIIGNIAQTRYG”: the “soluble on expression in E. coli” value is listed as “not soluble”. On to “MRVVVTGATGFVGQQVVKALSDRGDQVVALVRSPGKAAKQFAGVPRVEWLGYTPKAAGDWFSALEGADAVIHLAGEPLANGRWTPQRKQEIYDSRVVGTQQLVQAIAQCQQRPRVLVSTSAIGYYGTSDTETFVETHAAGNDFLAKVCGDWEAAAQGVTELGVRLVILRFGIVLGEQGALAKLLLPFQLYLGGPLGSGQQWFSWIHQQDLVRLILTAVDQVGMQGVYNATAPEPLRMADFCRILAEVMQRPSWLPVPAPVLQLLLGEGADVVLKGQRVLPERTLATGFEFHYPNAKTALTNLLKPRYTEGSRLEHHHHHH”, for which the “soluble on expression in E. coli” value is “soluble”.

In the case of “MTDGSMDIDAMLEGGLEMAKNDRSQSRQRSPARSNRSRPSRVPIQSDVD”, the “soluble on expression in E. coli” value is on record as “not soluble”. Turning to “MSLGNTTVVTTTVRNATPSLTLDAGTIERFLAHSHRRRYPTRTDVFRPGDPAGTLYYVISGSVSIIAEEDDDRELVLGYFGSGEFVGEMGLFIESDTREVILRTRTQCELAEISYERLQQLFQTSLSPDAPRILYAIGVQLSKRLLDTTRKASRLAFLDVTDRIVRTLHDLSKEPEAMSHPQGTQLRVSRQELARLVGCSREMAGRVLKKLQADGLLHARGKTVVLYGTR”, the “soluble on expression in E. coli” value was “soluble”. With “MGSDKIHHHHHHMNNKERLLYVQEILQKETDEENELTLEQIMTKLHAVKGTEVNKKTLRDDLNALKDSGLFPISVNQEKNGVEKTYQHRTKLFTIQELRLLADALTTASFISKEETEQMINKLKKLTSHRLADHLDNRLLVPPDRGNREVQELIKTVHLLHDVIKHGEVIRYQYGQYNLTKEFTLRENGRFYTLKSYALIWDDQRYYLIGEDEDEDLIRYERVDQMYHVERTGAFFTWPEKFDLMEWLRTHSSVMTEQKEDLQLECHLDSLQDVLDCFGLDVTIQSLTDERFLLATKAVIDKGLMDWLFSLGGKVKVIHPPKLAEEIQREATAIIDQYRLANS” the entry was “not soluble”; with “MSLSQIVAEVDGYKVTKEELDTLFHVFWKRITHLSSAKPTQEDKRIFLIDYVADLLILKEAKKMGIEVSEKEINDFIRKYVGRKIKEKSVINAVKAEILVEKLVDKLMKEQELNPSEDILRAYYEFYKREFYRPSSVKLLGIYVKSKKEAERISQILKQGEVPSTEDVKVSKPLWYSIPTLPKYIRRNFRTLSVGEVSKPIKINDGYLVFKILDKKPAGFIPFERAKSLVKKMYLKEKRKEVFKKWLSEVLKKYQVRSTGKEGHHHHHH”, “not soluble”. With “MSRTVMCRKYHEELPGLDRPPYPGAKGEDIYNNVSRKAWDEWQKHQTMLINERRLNMMNAEDRKFLQQEMDKFLSGEDYAKADGYVPPSA” the entry was “soluble”.
